Assay in all cases: ITC; VP-ITC (MicroCal), 30°C, 10 mM potassium phosphate buffer pH 7.6 or 7.8; SlyD or its variant 30 uM in the calorimetric cell, HiPIP precursor (RR-HiPIP) injected: 100 uM, 2x 22 injections of 10 uL (Fig 4); 200 uM, 23 injections of 10 uL (Fig 3)
Details in all cases: both partners purified

Test [1] deals with T1, SlyD E108A, C-terminally hexahistidine-tagged (E. coli, UniProt P0A9K9 1-196, E108A).
T1 construct: FKBP-type peptidyl-prolyl cis-trans isomerase SlyD, E. coli; the tag is fused to the C-terminal domain; not shown: His6, C-terminal, kept
T1 sequence: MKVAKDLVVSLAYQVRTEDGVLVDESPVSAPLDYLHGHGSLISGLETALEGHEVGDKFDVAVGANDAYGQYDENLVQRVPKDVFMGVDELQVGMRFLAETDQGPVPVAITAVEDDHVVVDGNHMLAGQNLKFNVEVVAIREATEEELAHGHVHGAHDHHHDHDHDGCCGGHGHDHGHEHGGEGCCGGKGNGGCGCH

Test [2] deals with T2, SlyD E113A, C-terminally hexahistidine-tagged (E. coli, UniProt P0A9K9 1-196, E113A).
T2 construct: FKBP-type peptidyl-prolyl cis-trans isomerase SlyD, E. coli; the tag is fused to the C-terminal domain; not shown: His6, C-terminal, kept
T2 sequence: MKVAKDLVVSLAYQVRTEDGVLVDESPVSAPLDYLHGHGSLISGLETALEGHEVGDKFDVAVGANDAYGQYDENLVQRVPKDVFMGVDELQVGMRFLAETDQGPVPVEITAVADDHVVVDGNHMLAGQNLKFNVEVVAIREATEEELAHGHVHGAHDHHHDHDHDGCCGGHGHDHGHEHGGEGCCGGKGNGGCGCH

Test [3] concerns the target T3, SlyD from Escherichia coli, C-terminally hexahistidine-tagged, wild type (E. coli, UniProt P0A9K9 1-196).
T3 construct: FKBP-type peptidyl-prolyl cis-trans isomerase SlyD, E. coli; the tag is fused to the C-terminal domain; also called WT; wt; not shown: His6, C-terminal, kept
T3 sequence: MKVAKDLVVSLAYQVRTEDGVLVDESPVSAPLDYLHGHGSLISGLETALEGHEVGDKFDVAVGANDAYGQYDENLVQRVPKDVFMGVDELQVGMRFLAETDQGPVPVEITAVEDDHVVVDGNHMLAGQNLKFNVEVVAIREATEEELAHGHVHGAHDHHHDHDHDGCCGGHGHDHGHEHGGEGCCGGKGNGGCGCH

Test [4] concerns the target T4, SlyD Y68S, C-terminally hexahistidine-tagged (E. coli, UniProt P0A9K9 1-196, Y68S).
T4 construct: FKBP-type peptidyl-prolyl cis-trans isomerase SlyD, E. coli; the tag is fused to the C-terminal domain; not shown: His6, C-terminal, kept
T4 sequence: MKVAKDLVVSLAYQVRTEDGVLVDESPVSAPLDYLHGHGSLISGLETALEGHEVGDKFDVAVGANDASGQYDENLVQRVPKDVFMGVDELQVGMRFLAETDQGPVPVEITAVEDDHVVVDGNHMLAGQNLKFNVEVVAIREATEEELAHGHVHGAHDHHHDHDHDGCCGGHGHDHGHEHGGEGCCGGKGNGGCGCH

Test [5] deals with T5, SlyD E89A, C-terminally hexahistidine-tagged (E. coli, UniProt P0A9K9 1-196, E89A).
T5 construct: FKBP-type peptidyl-prolyl cis-trans isomerase SlyD, E. coli; the tag is fused to the C-terminal domain; not shown: His6, C-terminal, kept
T5 sequence: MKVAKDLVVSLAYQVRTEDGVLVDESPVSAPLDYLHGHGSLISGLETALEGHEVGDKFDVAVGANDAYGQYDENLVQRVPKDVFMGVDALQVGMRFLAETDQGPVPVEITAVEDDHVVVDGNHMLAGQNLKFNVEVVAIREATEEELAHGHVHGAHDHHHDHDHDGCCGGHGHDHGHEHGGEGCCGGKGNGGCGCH

Test [6] deals with T6, SlyD F96G, C-terminally hexahistidine-tagged (E. coli, UniProt P0A9K9 1-196, F96G).
T6 construct: FKBP-type peptidyl-prolyl cis-trans isomerase SlyD, E. coli; the tag is fused to the C-terminal domain; not shown: His6, C-terminal, kept
T6 sequence: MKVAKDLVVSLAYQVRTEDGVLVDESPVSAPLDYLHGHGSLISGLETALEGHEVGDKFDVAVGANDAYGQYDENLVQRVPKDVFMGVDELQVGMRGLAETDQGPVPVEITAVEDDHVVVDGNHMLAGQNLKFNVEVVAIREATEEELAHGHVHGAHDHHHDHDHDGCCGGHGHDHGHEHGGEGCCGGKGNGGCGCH

We go through 1 molecule from publication PMC11198818, “Positive charges promote the recognition of proteins by the chaperone SlyD from Escherichia coli” (PLOS ONE, 2024).

B1: HiPIP precursor (RR-HiPIP) from Allochromatium vinosum (natural protein)
chain: MSDKPISKSRRDAVKVMLGTAAAIPMINLVGFGTARASAPANAVAADDATAIALKYNQDATKSERVAAARPGLPPEEQHCANCQFMQADAAGATDEWKGCQLFPGKLINVNGWCASWTLKAG
modifications: HiPIP precursor; fully folded, [4Fe-4S] cluster presumed; signal peptide retained
Consider B1, for which the “stoichiometry N” value in test [1] stood at 0.569 ± 0.015; in test [2], 0.616 ± 0.008; in test [3], 0.71 ± 0.002; in test [4], 0.462 ± 0.003; in test [5] it was 0.404 ± 0.004; in test [6], 0.575 ± 0.007. Besides, the figures for the Kd in test [2], in test [5] and in test [6] were 490 ± 70 nM, 380 ± 40 nM and 5650 ± 300 nM, respectively.
